9 molecules from US20230357364A1 (INTERNATIONAL AIDS VACCINE INITIATIVE, published 2023) can be followed below.

Sequences and labels used below:
B1: L6.P4A3.1 (antibody, V domains shown)
VH: QVQLVQSGAEVKKPGSSVKVSCKASGGIFSSSAISWVRQAPGQGLEWMGGIIPILDISNYAQKFQGRVTITADKSTSTAFMELSSLRSEDTAVYYCALTNQWDLLVYWGQGTLVTVSS
VL: EIVLTQSPGTLSLSPGERATLSCRASQRVSSSYLAWYQQKPGQAPRLLIYGAESRATGIPDRFSGSGSGTDFTLTISRLEPEDFAVYYCQHYGSSLWTFGQGTKLEIK
B2: L6.P4A3.2 (antibody, V domains shown)
VH: B1 VH with S25P, I28T, G50T, S58T, L98Q, T99R
VL: B1 VL with R28S, S31A, L96R
B3: L6.P4A3.9 (antibody, V domains shown)
VH: B1 VH with A24S, I28T, I34Y, G50T, S58T, L98Q, T99R, L105I
VL: B1 VL with R28W, L34I, L96S
B4: L6.P4A3.8 (antibody, V domains shown)
VH: B1 VH with A24V, I28T, G50K, S58T, T99R
VL: B1 VL with R28S, S32H, L96P
B5: L6.P4A3.5 (antibody, V domains shown)
VH: B1 VH with S25V, I28T, S35Y, S58A, T99R, L105V
VL: B1 VL with R24H, R28S, L96T
B6: L6.P4A3.3 (antibody, V domains shown)
VH: B1 VH with S25P, I28T, S58T, N59H, T99R
VL: B1 VL with R28D, L96E
B7: L6.P4A3.7 (antibody, V domains shown)
VH: B1 VH with I57Y, S58T, T99R
VL: B1 VL with R28E, L96A
B8: L6.P4A3.12 (antibody, V domains shown)
VH: B1 VH with I28L, S58T
VL: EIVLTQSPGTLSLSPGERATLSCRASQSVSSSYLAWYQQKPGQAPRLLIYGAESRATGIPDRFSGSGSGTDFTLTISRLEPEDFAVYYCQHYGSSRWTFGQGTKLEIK
B9: L6.P4A3.b (antibody, V domains shown)
VH: B1 VH with S25P, I28T, S58T, N59T, T99R, V106I
VL: B1 VL with R28S, S32H, E53S, A56Y, L96H

Changes are numbered by the printed parent chain.

This experiment deals with human insulin (human, UniProt P01308 25-54; P01308 90-110). The experiment in a line: polyreactivity ELISA. (An ELISA detects its analyte on a solid surface through an enzyme-linked reagent.)
Sequence of human insulin (P01308 25-54 limits assumed, chain 1 of 2): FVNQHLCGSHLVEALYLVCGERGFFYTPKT
Sequence of human insulin (P01308 90-110 limits assumed, chain 2 of 2): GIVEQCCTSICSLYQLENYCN
As to B1, the binding result is “no binding”.
Consider B2, for which the binding result is given as “no binding”.
To B3 belongs “no binding”.
Take B4: the binding result is given as “no binding”.
To B5 belongs “no binding”.
Consider B6, for which the binding result is “no binding”.
On to B7, for which the binding result was “no binding”.
For the molecule B8, the binding result is “no binding”.
To B9 belongs “no binding”.
